# ± gives the uncertainty stated by the source.
# B1: Histone H1t, residues 44 to 112; numbered along this chain, P22492 (parent)
# chain: VSKLITEALSVSQERVGMSLVALKKALAAAGYDVEKNNSRIKLSLKSLVNKGILVQTRGTGASGSFKLS
# Variants of: B1
# Assay: abundance fitness (aPCA) (normalised: wild type 0, dead -1); higher = more abundant; growth selection in yeast, the domain comes from the species named
# Details: Homo sapiens
row,Variant,abundance fitness
1,VSKLITEALSVSQERVGMSLVALKKALAAAGYDVEKNNSRIKLSLKSLVNEGILVQTRGTGASGSFKLS [K51E],0.016 ± 0.078
2,VSKLITEALSVSQERVGMSLVALKKALAAAGYDVEKNNSRIKLSLKSLVNFGILVQTRGTGASGSFKLS [K51F],-0.557 ± 0.091
3,VSKLITEALSVSQERVGMSLVALKKALAAAGYDVEKNNSRIKLSLKSLVNGGILVQTRGTGASGSFKLS [K51G],-0.322 ± 0.097
4,VSKLITEALSVSQERVGMSLVALKKALAAAGYDVEKNNSRIKLSLKSLVNHGILVQTRGTGASGSFKLS [K51H],-0.289 ± 0.14
5,VSKLITEALSVSQERVGMSLVALKKALAAAGYDVEKNNSRIKLSLKSLVNLGILVQTRGTGASGSFKLS [K51L],-0.281 ± 0.031
6,VSKLITEALSVSQERVGMSLVALKKALAAAGYDVEKNNSRIKLSLKSLVNMGILVQTRGTGASGSFKLS [K51M],-0.258 ± 0.053
7,VSKLITEALSVSQERVGMSLVALKKALAAAGYDVEKNNSRIKLSLKSLVNNGILVQTRGTGASGSFKLS [K51N],-0.081 ± 0.11
8,VSKLITEALSVSQERVGMSLVALKKALAAAGYDVEKNNSRIKLSLKSLVNPGILVQTRGTGASGSFKLS [K51P],-0.323 ± 0.036
9,VSKLITEALSVSQERVGMSLVALKKALAAAGYDVEKNNSRIKLSLKSLVNQGILVQTRGTGASGSFKLS [K51Q],-0.065 ± 0.041
10,VSKLITEALSVSQERVGMSLVALKKALAAAGYDVEKNNSRIKLSLKSLVNRGILVQTRGTGASGSFKLS [K51R],0.132 ± 0.062
11,VSKLITEALSVSQERVGMSLVALKKALAAAGYDVEKNNSRIKLSLKSLVNSGILVQTRGTGASGSFKLS [K51S],-0.161 ± 0.05
12,VSKLITEALSVSQERVGMSLVALKKALAAAGYDVEKNNSRIKLSLKSLVNTGILVQTRGTGASGSFKLS [K51T],-0.212 ± 0.051
13,VSKLITEALSVSQERVGMSLVALKKALAAAGYDVEKNNSRIKLSLKSLVNVGILVQTRGTGASGSFKLS [K51V],-0.481 ± 0.042
14,VSKLITEALSVSQERVGMSLVALKKALAAAGYDVEKNNSRIKLSLKSLVNWGILVQTRGTGASGSFKLS [K51W],-0.557 ± 0.13
15,VSKLITEALSVSQERVGMSLVALKKALAAAGYDVEKNNSRIKLSLKSLVNYGILVQTRGTGASGSFKLS [K51Y],-1.1 ± 0.34
16,VSKLITEALSVSQERVGMSLVALKKALAAAGYDVEKNNSRIKLSLKSLVNKCILVQTRGTGASGSFKLS [G52C],-0.01 ± 0.13
17,VSKLITEALSVSQERVGMSLVALKKALAAAGYDVEKNNSRIKLSLKSLVNKDILVQTRGTGASGSFKLS [G52D],-0.08 ± 0.45
18,VSKLITEALSVSQERVGMSLVALKKALAAAGYDVEKNNSRIKLSLKSLVNKFILVQTRGTGASGSFKLS [G52F],-0.184 ± 0.045
19,VSKLITEALSVSQERVGMSLVALKKALAAAGYDVEKNNSRIKLSLKSLVNKHILVQTRGTGASGSFKLS [G52H],-0.283 ± 0.05
20,VSKLITEALSVSQERVGMSLVALKKALAAAGYDVEKNNSRIKLSLKSLVNKIILVQTRGTGASGSFKLS [G52I],-0.352 ± 0.054

row,Variant,abundance fitness
1,VSKLITEALSVSQERVGMSLVALKKALAAAGYDVEKNNSRIKLSLKSLVNKKILVQTRGTGASGSFKLS [G52K],-0.123 ± 0.066
2,VSKLITEALSVSQERVGMSLVALKKALAAAGYDVEKNNSRIKLSLKSLVNKLILVQTRGTGASGSFKLS [G52L],-0.212 ± 0.03
3,VSKLITEALSVSQERVGMSLVALKKALAAAGYDVEKNNSRIKLSLKSLVNKMILVQTRGTGASGSFKLS [G52M],-0.199 ± 0.052
4,VSKLITEALSVSQERVGMSLVALKKALAAAGYDVEKNNSRIKLSLKSLVNKNILVQTRGTGASGSFKLS [G52N],-0.201 ± 0.079
5,VSKLITEALSVSQERVGMSLVALKKALAAAGYDVEKNNSRIKLSLKSLVNKPILVQTRGTGASGSFKLS [G52P],-0.39 ± 0.032
6,VSKLITEALSVSQERVGMSLVALKKALAAAGYDVEKNNSRIKLSLKSLVNKQILVQTRGTGASGSFKLS [G52Q],-0.3 ± 0.048
7,VSKLITEALSVSQERVGMSLVALKKALAAAGYDVEKNNSRIKLSLKSLVNKRILVQTRGTGASGSFKLS [G52R],-0.434 ± 0.099
8,VSKLITEALSVSQERVGMSLVALKKALAAAGYDVEKNNSRIKLSLKSLVNKSILVQTRGTGASGSFKLS [G52S],-0.129 ± 0.033
9,VSKLITEALSVSQERVGMSLVALKKALAAAGYDVEKNNSRIKLSLKSLVNKTILVQTRGTGASGSFKLS [G52T],-0.15 ± 0.036
10,VSKLITEALSVSQERVGMSLVALKKALAAAGYDVEKNNSRIKLSLKSLVNKWILVQTRGTGASGSFKLS [G52W],-0.457 ± 0.2
11,VSKLITEALSVSQERVGMSLVALKKALAAAGYDVEKNNSRIKLSLKSLVNKYILVQTRGTGASGSFKLS [G52Y],-0.425 ± 0.067
12,VSKLITEALSVSQERVGMSLVALKKALAAAGYDVEKNNSRIKLSLKSLVNKGALVQTRGTGASGSFKLS [I53A],-0.118 ± 0.058
13,VSKLITEALSVSQERVGMSLVALKKALAAAGYDVEKNNSRIKLSLKSLVNKGCLVQTRGTGASGSFKLS [I53C],-0.153 ± 0.063
14,VSKLITEALSVSQERVGMSLVALKKALAAAGYDVEKNNSRIKLSLKSLVNKGELVQTRGTGASGSFKLS [I53E],-0.002 ± 0.053
15,VSKLITEALSVSQERVGMSLVALKKALAAAGYDVEKNNSRIKLSLKSLVNKGFLVQTRGTGASGSFKLS [I53F],-0.031 ± 0.042
16,VSKLITEALSVSQERVGMSLVALKKALAAAGYDVEKNNSRIKLSLKSLVNKGGLVQTRGTGASGSFKLS [I53G],-0.363 ± 0.13
17,VSKLITEALSVSQERVGMSLVALKKALAAAGYDVEKNNSRIKLSLKSLVNKGHLVQTRGTGASGSFKLS [I53H],-0.095 ± 0.058
18,VSKLITEALSVSQERVGMSLVALKKALAAAGYDVEKNNSRIKLSLKSLVNKGLLVQTRGTGASGSFKLS [I53L],-0.067 ± 0.029
19,VSKLITEALSVSQERVGMSLVALKKALAAAGYDVEKNNSRIKLSLKSLVNKGMLVQTRGTGASGSFKLS [I53M],-0.054 ± 0.048

# — the Human Domainome abundance scans (Beltran et al. 2025)
